The values that follow come from PMC13708078, “Development of a GRPR-Targeted ^99mTc/^188Re Theranostic Pair Based on NOTA-P2-RM26” (Pharmaceutics, 2026).

Broadly, the tissue uptake is the share of the injected amount in each gram of the tissue.

This series can be described thus: in vivo. More on the design: species or system mice. The following applies: female, Swiss Albino SCID, mouse, iv, total radioactivity.

Method: PC-3 xenografts were established in female Swiss Albino SCID mice, aged 7–8 weeks. After acclimatization, animals were injected subcutaneously into the right shoulder/upper-flank region with freshly harvested PC-3 cells suspended in PBS. Each animal received 5 × 10^6 cells. Tumors were allowed to grow for approximately three weeks until palpable solid tumors were formed. At the time of the experiments, tumor volumes ranged from 200 to 400 mm^3. Animals were then randomly assigned to experimental groups.
Biodistribution studies were performed at 30 min and 1 h post injection (p.i.). […] The injected volume was 100 μL, and the injected activity was approximately 100 kBq per animal. Animals weighed 21 ± 2 g on the day of the experiment. For in vivo blocking studies, a separate group of animals received non-radioactive NOTA-P2-RM26 (50 μg) 5 min prior to the radiotracer injection. Blocking animals were euthanized at 1 h p.i. At the selected time points, animals were euthanized. Blood, tumors, organs, and tissues of interest were collected, weighed, and measured for radioactivity using the gamma counter. The stomach and intestines were measured without content. […] Data were decay-corrected and expressed as a percentage of injected activity per gram of tissue (%IA/g). Urine/bladder and gastrointestinal/fecal content were expressed as a percentage of injected activity (%IA).

Turning to `CC(C)C[C@H](NC(=O)C[C@H](O)[C@H](CC(C)C)NC(=O)[C@H](Cc1c[nH]cn1)NC(=O)CNC(=O)[C@@H](NC(=O)[C@H](C)NC(=O)[C@H](Cc1c[nH]c2ccccc12)NC(=O)[C@H](CCC(N)=O)NC(=O)[C@@H](Cc1ccccc1)NC(=O)COCCOCCNC(=O)CN1CCN(CC(=O)O)CCN(CC(=O)O)CC1)C(C)C)C(N)=O` [^99mTc2, fac-[^99mTc][Tc(CO)3(NOTA-P2-RM26)], metal not drawn], the tissue uptake at 1 h by setting is: (bone uptake) 0.18 ± 0.07 %ID/g; (pancreatic uptake) 3 ± 0.35 %ID/g.
